Publication PMC3499415, “The Human Cytomegalovirus DNA Polymerase Processivity Factor UL44 Is Modified by SUMO in a DNA-Dependent Manner” (PLoS ONE, 2012)

B2: HCMV UL44 (DNA polymerase processivity factor), full-length, yeast two-hybrid fusion (natural protein)
chain: MDRKTRLSEPPTLALRLKPYKTAIQQLRSVIRALKENTTVTFLPTPSLILQTVRSHCVSKITFNSSCLYITDKSFQPKTINNSTPLLGNFMYLTSSKDLTKFYVQDISDLSAKISMCAPDFNMEFSSACVHGQDIVRESENSAVHVDLDFGVVADLLKWIGPHTRVKRNVKKAPCPTGTVQILVHAGPPAIKFILTNGSELEFTANNRVSFHGVKNMRINVQLKNFYQTLLNCAVTKLPCTLRIVTEHDTLLYVASRNGLFAVENFLTEEPFQRGDPFDKNYVGNSGKSRGGGGGGGSLSSLANAGGLHDDGPGLDNDLMNEPMGLGGLGGGGGGGGKKHDRGGGGGSGTRKMSSGGGGGDHDHGLSSKEKYEQHKITSYLTSKGGSGGGGGGGGGGLDRNSGNYFNDAKEESDSEDSVTFEFVPNTKKQKCG
notes: also called LexA-UL44; GAD-UL44; source: yeast two-hybrid fusion (S. cerevisiae L40)

Experiments:
Test in all cases: two-hybrid
[1] = molecular target: T1, HCMV UL44 (DNA polymerase processivity factor), full-length, yeast two-hybrid fusion (human cytomegalovirus (HCMV)), P16790; conditions: remark: other sources report otherwise
T1 chain: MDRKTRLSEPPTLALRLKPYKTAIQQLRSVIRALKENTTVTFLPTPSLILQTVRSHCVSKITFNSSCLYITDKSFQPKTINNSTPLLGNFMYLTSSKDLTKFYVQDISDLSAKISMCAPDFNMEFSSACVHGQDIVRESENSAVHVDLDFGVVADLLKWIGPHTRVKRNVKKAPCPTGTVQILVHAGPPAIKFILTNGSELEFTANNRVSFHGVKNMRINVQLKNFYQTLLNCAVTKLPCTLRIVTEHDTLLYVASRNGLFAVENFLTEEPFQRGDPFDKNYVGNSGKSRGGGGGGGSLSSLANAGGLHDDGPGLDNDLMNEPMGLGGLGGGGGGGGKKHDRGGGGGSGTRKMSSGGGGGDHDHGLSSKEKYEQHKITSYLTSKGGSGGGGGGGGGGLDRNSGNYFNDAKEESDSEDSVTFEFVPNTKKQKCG

[2] = molecular target: T2, human Ubc9 (SUMO-conjugating enzyme E2), yeast two-hybrid fusion (human, UniProt P63279 1-158); conditions: partners not purified
T2 construct: also called GAD-Ubc9; LexA-Ubc9

[3] = molecular target: B2; conditions: partners not purified

T2 sequence (P63279 whole entry, the tested form may be a part): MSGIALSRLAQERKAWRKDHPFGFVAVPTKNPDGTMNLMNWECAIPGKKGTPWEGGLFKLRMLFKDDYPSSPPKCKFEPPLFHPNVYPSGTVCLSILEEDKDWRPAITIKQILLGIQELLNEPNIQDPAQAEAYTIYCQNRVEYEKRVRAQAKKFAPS

B1: HCMV UL44 (DNA polymerase processivity factor), full-length, yeast two-hybrid fusion, P16790 1-433 (natural protein)
chain: MDRKTRLSEPPTLALRLKPYKTAIQQLRSVIRALKENTTVTFLPTPSLILQTVRSHCVSKITFNSSCLYITDKSFQPKTINNSTPLLGNFMYLTSSKDLTKFYVQDISDLSAKISMCAPDFNMEFSSACVHGQDIVRESENSAVHVDLDFGVVADLLKWIGPHTRVKRNVKKAPCPTGTVQILVHAGPPAIKFILTNGSELEFTANNRVSFHGVKNMRINVQLKNFYQTLLNCAVTKLPCTLRIVTEHDTLLYVASRNGLFAVENFLTEEPFQRGDPFDKNYVGNSGKSRGGGGGGGSLSSLANAGGLHDDGPGLDNDLMNEPMGLGGLGGGGGGGGKKHDRGGGGGSGTRKMSSGGGGGDHDHGLSSKEKYEQHKITSYLTSKGGSGGGGGGGGGGLDRNSGNYFNDAKEESDSEDSVTFEFVPNTKKQKCG
- β-gal expression [1]: 7640 Units

Binder: B2
- β-gal expression [2]: 6920 Units

B3: HCMV UL54 (DNA polymerase catalytic subunit), GAD fusion (enzyme)
chain: MFFNPYLSGGVTGGAVAGGRRQRSQPGSAQGSGKRPPQKQFLQIVPRGVMFDGQTGLIKHKTGRLPLMFYREIKHLLSHDMVWPCPWRETLVGRVVGPIRFHTYDQTDAVLFFDSPENVSPRYRQHLVPSGNVLRFFGATEHGYSICVNVFGQRSYFYCEYSDTDRLREVIASVGELVPEPRTPYAVSVTPATKTSIYGYGTRPVPDLQCVSISNWTMARKIGEYLLEQGFPVYEVRVDPLTRLVIDRRITTFGWCSVNRYDWRQQGRASTCDIEVDCDVSDLVAVPDDSSWPRYRCLSFDIECMSGEGGFPCAEKSDDIVIQISCVCYETGGNTAVDQGIPNGNDGRGCTSEGVIFGHSGLHLFTIGTCGQVGPDVDVYEFPSEYELLLGFMLFFQRYAPAFVTGYNINSFDLKYILTRLEYLYKVDSQRFCKLPTAQGGRFFLHSPAVGFKRQYAAAFPSASHNNPASTAATKVYIAGSVVIDMYPVCMAKTNSPNYKLNTMAELYLRQRKDDLSYKDIPRCFVANAEGRAQVGRYCLQDAVLVRDLFNTINFHYEAGAIARLAKIPLRRVIFDGQQIRIYTSLLDECACRDFILPNHYSKGTTVPETNSVAVSPNAAIISTAAVPGDAGSVAAMFQMSPPLQSAPSSQDGVSPGSGSNSSSSVGVFSVGSGSSGGVGVSNDNHGAGGTAAVSYQGATVFEPEVGYYNDPVAVFDFASLYPSIIMAHNLCYSTLLVPGGEYPVDPADVYSVTLENGVTHRFVRASVRVSVLSELLNKWVSQRRAVRECMRECQDPVRRMLLDKEQMALKVTCNAFYGFTGVVNGMMPCLPIAASITRIGRDMLERTARFIKDNFSEPCFLHNFFNQEDYVVGTREGDSEESSALPEGLETSSGGSNERRVEARVIYGDTDSVFVRFRGLTPQALVARGPSLAHYVTACLFVEPVKLEFEKVFVSLMMICKKRYIGKVEGASGLSMKGVDLVRKTACEFVKGVTRDVLSLLFEDREVSEAAVRLSRLSLDEVKKYGVPRGFWRILRRLVQARDDLYLHRVRVEDLVLSSVLSKDISLYRQSNLPHIAVIKRLAARSEELPSVGDRVFYVLTAPGVRTAPQGSSDNGDSVTAGVVSRSDAIDGTDDDADGGGVEESNRRGGEPAKKRARKPPSAVCNYEVAEDPSYVREHGVPIHADKYFEQVLKAVTNVLSPVFPGGETARKDKFLHMVLPRRLHLEPAFLPYSVKAHECC
notes: also called GAD-UL54; source: yeast two-hybrid fusion (S. cerevisiae L40)
- β-gal expression [3]: 8240 Units
